Results taken from IntAct's records for PubMed 20925060.

B1: Chaperonin GroEL 2 (Mycobacterium tuberculosis (strain ATCC 25618 / P9WPE7 (parent)
chain: MAKTIAYDEEARRGLERGLNALADAVKVTLGPKGRNVVLEKKWGAPTITNDGVSIAKEIELEDPYEKIGAELVKEVAKKTDDVAGDGTTTATVLAQALVREGLRNVAAGANPLGLKRGIEKAVEKVTETLLKGAKEVETKEQIAATAAISAGDQSIGDLIAEAMDKVGNEGVITVEESNTFGLQLELTEGMRFDKGYISGYFVTDPERQEAVLEDPYILLVSSKVSTVKDLLPLLEKVIGAGKPLLIIAEDVEGEALSTLVVNKIRGTFKSVAVKAPGFGDRRKAMLQDMAILTGGQVISEEVGLTLENADLSLLGKARKVVVTKDETTIVEGAGDTDAIAGRVAQIRQEIENSDSDYDREKLQERLAKLAGGVAVIKAGAATEVELKERKHRIEDAVRNAKAAVEEGIVAGGGVTLLQAAPTLDELKLEGDEATGANIVKVALEAPLKQIAFNSGLEPGVVAEKVRNLPAGHGLNAQTGVYEDLLAAGVADPVKVTRSALQNAASIAGLFLTTEAVVADKPEKEKASVPGGGDMGGMDF
partner: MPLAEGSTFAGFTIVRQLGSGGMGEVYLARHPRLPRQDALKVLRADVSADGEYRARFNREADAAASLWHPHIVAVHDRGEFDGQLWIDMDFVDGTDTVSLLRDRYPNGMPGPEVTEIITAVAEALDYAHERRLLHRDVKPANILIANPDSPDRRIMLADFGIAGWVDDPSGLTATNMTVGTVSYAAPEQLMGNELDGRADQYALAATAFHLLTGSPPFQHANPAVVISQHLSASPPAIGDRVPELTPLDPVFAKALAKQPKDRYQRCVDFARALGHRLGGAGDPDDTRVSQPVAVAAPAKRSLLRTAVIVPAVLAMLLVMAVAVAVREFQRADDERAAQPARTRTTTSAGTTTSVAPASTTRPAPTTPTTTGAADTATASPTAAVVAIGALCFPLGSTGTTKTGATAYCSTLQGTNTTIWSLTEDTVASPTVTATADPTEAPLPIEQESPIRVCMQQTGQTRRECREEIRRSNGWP
B2: Alpha-crystallin (Mycobacterium tuberculosis (strain ATCC 25618 / P9WMK1 (parent)
chain: MATTLPVQRHPRSLFPEFSELFAAFPSFAGLRPTFDTRLMRLEDEMKEGRYEVRAELPGVDPDKDVDIMVRDGQLTIKAERTEQKDFDGRSEFAYGSFVRTVSLPVGADEDDIKATYDKGILTVSVAVSEGKPTEKHIQIRSTN
partner: B1 partner

Variants of: B1
Conditions: with pknf_myctu pknF

| Variant | effect of a mutation on the interaction |
| --- | --- |
| T127A | decreasing interaction |
| T92A | decreasing interaction |
| T90A | decreasing interaction |

Variants of: B2
Conditions: with pknf_myctu pknF

| Variant | effect of a mutation on the interaction |
| --- | --- |
| MATTLPVQRHPRSLFPEFSELFAAFPAFAGLRPTFDTRLMRLEDEMKEGRYEVRAELPGVDPDKDVDIMVRDGQLTIKAERTEQKDFDGRSEFAYGSFVRTVSLPVGADEDDIKATYDKGILTVSVAVSEGKPTEKHIQIRSTN [S27A] | decreasing interaction |
| MATTLPVQRHPRSLFPEFAELFAAFPSFAGLRPTFDTRLMRLEDEMKEGRYEVRAELPGVDPDKDVDIMVRDGQLTIKAERTEQKDFDGRSEFAYGSFVRTVSLPVGADEDDIKATYDKGILTVSVAVSEGKPTEKHIQIRSTN [S19A] | decreasing interaction |
| MATTLPVQRHPRSLFPEFSELFAAFPSFAGLRPTFDTRLMRLEDEMKEGRYEVRAELPGVDPDKDVDIMVRDGQLTIKAERTEQKDFDGRSEFAYGSFVRTVSLPVGADEDDIKATYDKGILTVSVAVSEGKPAEKHIQIRSTN [T134A] | decreasing interaction |
| MATALPVQRHPRSLFPEFSELFAAFPSFAGLRPTFDTRLMRLEDEMKEGRYEVRAELPGVDPDKDVDIMVRDGQLTIKAERTEQKDFDGRSEFAYGSFVRTVSLPVGADEDDIKATYDKGILTVSVAVSEGKPTEKHIQIRSTN [T4A] | decreasing interaction |
